Measured values: article PMC11303214

Legend:
Assay in all cases: SEC; Superdex200 column, PBS buffer pH 7.4, after nickel affinity chromatography
[1] = target: SsA2 (R-1b variant with the A55C-L188C disulfide) (respiratory syncytial virus (RSV) | bacteriophage T4) (UniProt P03420)
[2] = target: SsB1 (R-1b variant with the S443C-S466C disulfide) (respiratory syncytial virus (RSV) | bacteriophage T4) (UniProt P03420)
[3] = target: SsA1 (R-1b variant with the V157C-N183C disulfide) (respiratory syncytial virus (RSV) | bacteriophage T4) (UniProt P03420)

Substance: SsA2 (R-1b variant with the A55C-L188C disulfide) (from UniProt P03420 26-105; P03420 137-513)
- stoichiometry N [1]: 3

Substance: SsB1 (R-1b variant with the S443C-S466C disulfide) (from UniProt P03420 26-105; P03420 137-513)
- stoichiometry N [2]: 3

Substance: SsA1 (R-1b variant with the V157C-N183C disulfide) (from UniProt P03420 26-105; P03420 137-513)
- stoichiometry N [3]: 3
